The results in this text go back to patent US20200109196A1 (MOGAM INSTITUTE FOR BIOMEDICAL RESEARCH, published 2020).

What all share (assay): ELISA on coated antigen (0.25 µg/ml), antibody 3 µg/ml, HRP anti-human IgG Fc, OD450
On the technique in general: An ELISA detects its analyte on a solid surface through an enzyme-linked reagent.

Test [1] concerns the target T1, recombinant human CEACAM1-N domain-Kappa protein (Mogam, in-house production) (human, UniProt P13688 35-142, limits assumed).
T1 construct: domain: N domain; In-house fusion; also called HCCM1-N domain-kappa; HCCM1-N-domain-kappa
T1 sequence (looked up): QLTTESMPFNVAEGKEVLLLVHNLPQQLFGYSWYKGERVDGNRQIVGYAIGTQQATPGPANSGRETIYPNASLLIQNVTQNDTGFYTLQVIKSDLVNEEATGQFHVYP
An excerpt: (§1) All of the recombinant human CEACAM-1/CD66a protein (R&D systems; Cat No. 2244-CM, HCCM1), recombinant human CEACAM-5/CD66e protein (R&D systems; Cat. No. 4128-CM, HCCM5), recombinant human CEACAM-6/CD66c protein (R&D systems; Cat. No. 3934-CM, HCCM6), recombinant human CEACAM-3/CD66d protein (Sino Biological; Cat. No. 11933-H08H, HCCM3), human B7-H5/Gi24/VISTA protein (Sino Biological; Cat. No. 13482-H08H, HVISTA), recombinant human CEACAM-1/CD66a protein Bulk (R&D systems; Cat. No. 2244-CM, HCCM1 (bulk)), recombinant human CEACAM1-N domain-Kappa protein (Mogam, in-house production, HCCM1-N domain-kappa), and BSA protein (2.5 μg each) were dissolved in 10 ml of PBS, respectively, and dispensed into a 96-well plate at 100 μl/well, which was incubated at 4° C. overnight. Thereafter, each well was treated with 300 μl of 1% (v/v) bovine serum albumin, and incubated at 37° C. for 1 hour.
(§2) The diluted antibodies were dispensed into each well coated with each protein at 100 μl/well, and incubated at 37° C. for 1 hour. Then, each well was washed 3 times with a washing buffer prepared by diluting 10 μl of Tween 20 (Sigma-Aldrich; Cat. No. P9146) in 990 μl of PBS. Thereafter, 2 μl of HRP-conjugated human anti-IgG-Fc antibody (anti-human IgG Fc, Sigma Cat. No. A0170) was diluted in 10 ml of PBS, added to the wells at 100 μl/well, and incubated for 1 hour.
(§3) After completion of the reaction, the wells were washed three times with the washing buffer, and 100 μl of TMB solution was added to each well to induce color development. Then, 100 μl of 2 M H₂SO₄ was added to each well to stop the reaction, and the absorbance was measured at a wavelength of 450 nm.

Test [2] concerns the target T2, recombinant human CEACAM-1/CD66a protein (R&D systems; Cat. No. 2244-CM) (human, UniProt P13688 35-428).
T2 construct: Bought protein; captured on anti-His (His1K) biosensors in the Octet assay, so it carries a His tag; also called HCCM1; recombinant CEACAM-1/CD66a protein
T2 sequence (looked up): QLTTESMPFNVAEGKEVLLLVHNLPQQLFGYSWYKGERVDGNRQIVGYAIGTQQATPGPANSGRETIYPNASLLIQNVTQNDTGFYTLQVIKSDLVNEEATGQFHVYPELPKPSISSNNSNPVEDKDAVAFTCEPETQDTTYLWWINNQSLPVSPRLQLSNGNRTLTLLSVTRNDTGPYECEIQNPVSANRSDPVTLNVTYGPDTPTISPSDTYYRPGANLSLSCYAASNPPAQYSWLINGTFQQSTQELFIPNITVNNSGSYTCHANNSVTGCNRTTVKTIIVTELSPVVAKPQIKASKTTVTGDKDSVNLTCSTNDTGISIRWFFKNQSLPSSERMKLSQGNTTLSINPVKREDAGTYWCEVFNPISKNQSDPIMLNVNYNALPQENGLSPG
Description: as §1, §2, §3

For test [3], the target named is T3, recombinant human CEACAM-5/CD66e protein (R&D systems; Cat. No. 4128-CM) (human, UniProt P06731 35-685).
T3 construct: Bought protein; also called HCCM5
T3 sequence (looked up): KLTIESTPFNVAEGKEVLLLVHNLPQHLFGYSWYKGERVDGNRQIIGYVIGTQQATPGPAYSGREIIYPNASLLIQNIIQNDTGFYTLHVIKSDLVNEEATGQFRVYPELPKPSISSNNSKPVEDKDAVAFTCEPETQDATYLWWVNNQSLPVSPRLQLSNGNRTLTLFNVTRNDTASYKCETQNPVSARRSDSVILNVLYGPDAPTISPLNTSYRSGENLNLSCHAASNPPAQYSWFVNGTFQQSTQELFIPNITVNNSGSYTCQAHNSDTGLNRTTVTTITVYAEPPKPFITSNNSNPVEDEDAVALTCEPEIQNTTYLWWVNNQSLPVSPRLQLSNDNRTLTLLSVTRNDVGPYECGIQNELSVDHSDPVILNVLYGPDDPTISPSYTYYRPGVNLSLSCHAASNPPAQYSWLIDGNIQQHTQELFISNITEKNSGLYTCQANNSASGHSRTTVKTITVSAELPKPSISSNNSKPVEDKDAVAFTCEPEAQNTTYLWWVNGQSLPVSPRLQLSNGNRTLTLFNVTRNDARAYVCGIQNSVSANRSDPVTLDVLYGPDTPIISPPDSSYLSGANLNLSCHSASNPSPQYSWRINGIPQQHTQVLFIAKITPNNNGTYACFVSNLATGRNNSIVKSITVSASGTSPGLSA
Description: as §1, §2, §3

Numbering of substitutions follows the chain as printed.

B1: C15 (antibody, human IgG4 S228P, lambda, V domains shown)
VH: EVQLLESGGGLVQPGGSLRLSCAASGFTFSSYSMSWVRQAPGKGLEWVSSISPNGGNKYYADSVKGRFTISRDNSKNTLYLQMNSLGAEDTAVYYCAKDPYNIYQPLFDYWGQGTLVTVSS
VL: QSVLTQPLSASGTPGQRVTISCSGSSSNIGNNYVNWYQQLPGTAPKLLIYANSNRPSGVPDRFSGSKSGTSASLAISGLRSEEEADYYCGTWDASLSAYVFGGGTKLTVLG
With B1, in test [1], the binding result is listed as “binds”.

B2: C19 (antibody, human IgG4 S228P, lambda, V domains shown)
VH: EVQLLESGGGLVQPGGSLRLSCAASGFTFSGYAMSWVRQAPGKGLEWVSGIYHDGGSTYYADSVKGRFTISRDNSKNTLYLQMNSLRAEDTAVYYCARVTVLCTTYGCSSYDGMDVWGQGTLVTVSS
VL: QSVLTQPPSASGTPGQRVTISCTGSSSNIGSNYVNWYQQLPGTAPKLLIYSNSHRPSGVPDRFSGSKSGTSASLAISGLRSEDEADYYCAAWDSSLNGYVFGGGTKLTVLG
On to B2, for which the binding result in test [2], in test [1] and in test [3] was “binds” throughout.

B3: C18 (antibody, human IgG4 S228P, lambda, V domains shown)
VH: EVQLLESGGGLVQPGGSLRLSCAASGFTFSNYDMSWVRQAPGKGLEWVSGISHSSGSKYYADSVKGRFTISRDNSKNTLYLQMNSLRAEDTAVYYCARDPLPCLIPKCSYYYAMDVWGQGTLVTVSS
VL: QSVLTQPPSAPGTPGQRVTISCSGSSSNIGSNAVTWYQQLPGTAPKLLIYADSHRPSGVPDRFSGSKSGTSASLAISGLRSEDEADYYCGSWDDSLNAYVFGGGTKLTVLG
As to B3, the binding result in test [2] and in test [1] was “binds” throughout.

B4: C22 (antibody, human IgG4 S228P, lambda, V domains shown)
VH: EVQLLESGGGLVQPGGSLRLSCAASGFTFSDYDMSWVRQAPGKGLEWVSMIYSGSSSKYYADSVKGRFTISRDNSKNTLYLQMNSLRAEDTAVYYCAKAPLPFYFRPKSYYYAMDVWGQGTLVTVSS
VL: B3 VL with P11S, A33N, D52N, D94S
Regarding B4, the binding result in test [2], in test [1] and in test [3] was “binds” in each case.

B5: C17 (antibody, human IgG4 S228P, lambda, V domains shown)
VH: EVQLLESGGGLVQPGGSLRLSCAASGFTFSDYSMSWVRQAPGKGLEWVSVIYPDDGNTYYADSVKGRFTISRDNSKNTLYLQMNSLRAEDTAVYYCARGSIWWLSLIPSSYNAMDVWGQGTLVAVSS
VL: B1 VL with L8P, Y33A, N54H, E83D, T91A, S97N, A98G
On to B5, for which the binding result in test [1] and in test [3] was “binds” throughout.
